Test results from patent US12679878B2, “CRF2 receptor agonists and their use in therapy” (SANOFI, priority 2020, dated 2026).
Starred links: 1 amine or outer side, 2 acyl side, 3 side chain; linkers in the order of their positions; H or OH if unused. Non-standard residues stand in square brackets, D forms with d. Groups on a side chain read outwards from the residue. No end group written: not given here. *: point of attachment. C20 diacid = O=C(O)CCCCCCCCCCCCCCCCCCC(=O)*; C18 diacid = O=C(O)CCCCCCCCCCCCCCCCC(=O)*; γGlu = O=C(O)[C@H](CCC(=O)[*:2])N[*:1]; Palmitoyl = CCCCCCCCCCCCCCCC(=O)*; AEEA = NCCOCCOCC(=O)O; Aib = CC(C)(N)C(=O)O

target: human corticotropin-releasing factor 2α (CRF2 α receptor) (human), Q13324; assay: cell-based or functional assay
Sequence (Q13324 20-411): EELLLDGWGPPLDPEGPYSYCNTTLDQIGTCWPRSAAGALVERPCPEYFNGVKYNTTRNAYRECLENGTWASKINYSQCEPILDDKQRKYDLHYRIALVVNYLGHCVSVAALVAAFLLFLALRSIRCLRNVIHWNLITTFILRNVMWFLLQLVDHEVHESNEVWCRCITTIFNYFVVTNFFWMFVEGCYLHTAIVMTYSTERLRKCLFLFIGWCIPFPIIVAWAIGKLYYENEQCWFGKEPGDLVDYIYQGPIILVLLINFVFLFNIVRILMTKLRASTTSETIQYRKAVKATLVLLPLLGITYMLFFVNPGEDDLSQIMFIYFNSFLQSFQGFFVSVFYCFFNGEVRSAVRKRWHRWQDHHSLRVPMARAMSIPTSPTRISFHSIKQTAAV

Binder	EC50 [nM], 0% HSA [nM]	EC50 [nM], 0.1% HSA [nM]
IVLSLD[dV]PIKLK([AEEA-AEEA-γGlu-C20 diacid])QILLKQARQK[Aib]QRAQAEKNKRILERV-NH2 (N-terminus assumed; SMILES CC[C@H](C)[C@H](N)C(=O)N[C@H](C(=O)N[C@@H](CC(C)C)C(=O)N[C@@H](CO)C(=O)N[C@@H](CC(C)C)C(=O)N[C@@H](CC(=O)O)C(=O)N[C@@H](C(=O)N1CCC[C@H]1C(=O)N[C@H](C(=O)N[C@@H](CCCCN)C(=O)N[C@@H](CC(C)C)C(=O)N[C@@H](CCCCNC(=O)COCCOCCNC(=O)COCCOCCNC(=O)CC[C@H](NC(=O)CCCCCCCCCCCCCCCCCCC(=O)O)C(=O)O)C(=O)N[C@@H](CCC(N)=O)C(=O)N[C@H](C(=O)N[C@@H](CC(C)C)C(=O)N[C@@H](CC(C)C)C(=O)N[C@@H](CCCCN)C(=O)N[C@@H](CCC(N)=O)C(=O)N[C@@H](C)C(=O)N[C@@H](CCCNC(=N)N)C(=O)N[C@@H](CCC(N)=O)C(=O)N[C@@H](CCCCN)C(=O)NC(C)(C)C(=O)N[C@@H](CCC(N)=O)C(=O)N[C@@H](CCCNC(=N)N)C(=O)N[C@@H](C)C(=O)N[C@@H](CCC(N)=O)C(=O)N[C@@H](C)C(=O)N[C@@H](CCC(=O)O)C(=O)N[C@@H](CCCCN)C(=O)N[C@@H](CC(N)=O)C(=O)N[C@@H](CCCCN)C(=O)N[C@@H](CCCNC(=N)N)C(=O)N[C@H](C(=O)N[C@@H](CC(C)C)C(=O)N[C@@H](CCC(=O)O)C(=O)N[C@@H](CCCNC(=N)N)C(=O)N[C@H](C(N)=O)C(C)C)[C@@H](C)CC)[C@@H](C)CC)[C@@H](C)CC)C(C)C)C(C)C) [SEQ ID NO: 175]	0.06	3.64
IVLSLD[dV]PTKLK([γGlu-Palmitoyl])QKLLKQERQRKE[Aib]EQAEKNKRILERV-NH2 (N-terminus assumed; SMILES CCCCCCCCCCCCCCCC(=O)N[C@@H](CCC(=O)NCCCC[C@H](NC(=O)[C@H](CC(C)C)NC(=O)[C@H](CCCCN)NC(=O)[C@@H](NC(=O)[C@@H]1CCCN1C(=O)[C@H](NC(=O)[C@H](CC(=O)O)NC(=O)[C@H](CC(C)C)NC(=O)[C@H](CO)NC(=O)[C@H](CC(C)C)NC(=O)[C@@H](NC(=O)[C@@H](N)[C@@H](C)CC)C(C)C)C(C)C)[C@@H](C)O)C(=O)N[C@@H](CCC(N)=O)C(=O)N[C@@H](CCCCN)C(=O)N[C@@H](CC(C)C)C(=O)N[C@@H](CC(C)C)C(=O)N[C@@H](CCCCN)C(=O)N[C@@H](CCC(N)=O)C(=O)N[C@@H](CCC(=O)O)C(=O)N[C@@H](CCCNC(=N)N)C(=O)N[C@@H](CCC(N)=O)C(=O)N[C@@H](CCCNC(=N)N)C(=O)N[C@@H](CCCCN)C(=O)N[C@@H](CCC(=O)O)C(=O)NC(C)(C)C(=O)N[C@@H](CCC(=O)O)C(=O)N[C@@H](CCC(N)=O)C(=O)N[C@@H](C)C(=O)N[C@@H](CCC(=O)O)C(=O)N[C@@H](CCCCN)C(=O)N[C@@H](CC(N)=O)C(=O)N[C@@H](CCCCN)C(=O)N[C@@H](CCCNC(=N)N)C(=O)N[C@H](C(=O)N[C@@H](CC(C)C)C(=O)N[C@@H](CCC(=O)O)C(=O)N[C@@H](CCCNC(=N)N)C(=O)N[C@H](C(N)=O)C(C)C)[C@@H](C)CC)C(=O)O) [SEQ ID NO: 21]	0.02	
IVLSLD[dV]PIKLK([AEEA-AEEA-γGlu-γGlu-C18 diacid])QILLKQERQKKQRQQAEKNKQILAQV-NH2 (N-terminus assumed; SMILES CC[C@H](C)[C@H](N)C(=O)N[C@H](C(=O)N[C@@H](CC(C)C)C(=O)N[C@@H](CO)C(=O)N[C@@H](CC(C)C)C(=O)N[C@@H](CC(=O)O)C(=O)N[C@@H](C(=O)N1CCC[C@H]1C(=O)N[C@H](C(=O)N[C@@H](CCCCN)C(=O)N[C@@H](CC(C)C)C(=O)N[C@@H](CCCCNC(=O)COCCOCCNC(=O)COCCOCCNC(=O)CC[C@H](NC(=O)CC[C@H](NC(=O)CCCCCCCCCCCCCCCCC(=O)O)C(=O)O)C(=O)O)C(=O)N[C@@H](CCC(N)=O)C(=O)N[C@H](C(=O)N[C@@H](CC(C)C)C(=O)N[C@@H](CC(C)C)C(=O)N[C@@H](CCCCN)C(=O)N[C@@H](CCC(N)=O)C(=O)N[C@@H](CCC(=O)O)C(=O)N[C@@H](CCCNC(=N)N)C(=O)N[C@@H](CCC(N)=O)C(=O)N[C@@H](CCCCN)C(=O)N[C@@H](CCCCN)C(=O)N[C@@H](CCC(N)=O)C(=O)N[C@@H](CCCNC(=N)N)C(=O)N[C@@H](CCC(N)=O)C(=O)N[C@@H](CCC(N)=O)C(=O)N[C@@H](C)C(=O)N[C@@H](CCC(=O)O)C(=O)N[C@@H](CCCCN)C(=O)N[C@@H](CC(N)=O)C(=O)N[C@@H](CCCCN)C(=O)N[C@@H](CCC(N)=O)C(=O)N[C@H](C(=O)N[C@@H](CC(C)C)C(=O)N[C@@H](C)C(=O)N[C@@H](CCC(N)=O)C(=O)N[C@H](C(N)=O)C(C)C)[C@@H](C)CC)[C@@H](C)CC)[C@@H](C)CC)C(C)C)C(C)C) [SEQ ID NO: 176]	0.11	3.05

More lines, now with the values ahead:

EC50 [nM], 0% HSA [nM]	EC50 [nM], 0.1% HSA [nM]	Binder
0.03	1.88	IVLSLD[dV]PIKLK([γGlu-C18 diacid])QILLKQERQK[Aib]QREQAEKNKQILAQV-NH2 (N-terminus assumed; SMILES CC[C@H](C)[C@H](N)C(=O)N[C@H](C(=O)N[C@@H](CC(C)C)C(=O)N[C@@H](CO)C(=O)N[C@@H](CC(C)C)C(=O)N[C@@H](CC(=O)O)C(=O)N[C@@H](C(=O)N1CCC[C@H]1C(=O)N[C@H](C(=O)N[C@@H](CCCCN)C(=O)N[C@@H](CC(C)C)C(=O)N[C@@H](CCCCNC(=O)CC[C@H](NC(=O)CCCCCCCCCCCCCCCCC(=O)O)C(=O)O)C(=O)N[C@@H](CCC(N)=O)C(=O)N[C@H](C(=O)N[C@@H](CC(C)C)C(=O)N[C@@H](CC(C)C)C(=O)N[C@@H](CCCCN)C(=O)N[C@@H](CCC(N)=O)C(=O)N[C@@H](CCC(=O)O)C(=O)N[C@@H](CCCNC(=N)N)C(=O)N[C@@H](CCC(N)=O)C(=O)N[C@@H](CCCCN)C(=O)NC(C)(C)C(=O)N[C@@H](CCC(N)=O)C(=O)N[C@@H](CCCNC(=N)N)C(=O)N[C@@H](CCC(=O)O)C(=O)N[C@@H](CCC(N)=O)C(=O)N[C@@H](C)C(=O)N[C@@H](CCC(=O)O)C(=O)N[C@@H](CCCCN)C(=O)N[C@@H](CC(N)=O)C(=O)N[C@@H](CCCCN)C(=O)N[C@@H](CCC(N)=O)C(=O)N[C@H](C(=O)N[C@@H](CC(C)C)C(=O)N[C@@H](C)C(=O)N[C@@H](CCC(N)=O)C(=O)N[C@H](C(N)=O)C(C)C)[C@@H](C)CC)[C@@H](C)CC)[C@@H](C)CC)C(C)C)C(C)C) [SEQ ID NO: 179]
0.07	5.19	IVLSLD[dV]PIKLK([AEEA-AEEA-γGlu-γGlu-C20 diacid])QILLKQERQKKQRQQAEKNKQILAQV-NH2 (N-terminus assumed; SMILES CC[C@H](C)[C@H](N)C(=O)N[C@H](C(=O)N[C@@H](CC(C)C)C(=O)N[C@@H](CO)C(=O)N[C@@H](CC(C)C)C(=O)N[C@@H](CC(=O)O)C(=O)N[C@@H](C(=O)N1CCC[C@H]1C(=O)N[C@H](C(=O)N[C@@H](CCCCN)C(=O)N[C@@H](CC(C)C)C(=O)N[C@@H](CCCCNC(=O)COCCOCCNC(=O)COCCOCCNC(=O)CC[C@H](NC(=O)CC[C@H](NC(=O)CCCCCCCCCCCCCCCCCCC(=O)O)C(=O)O)C(=O)O)C(=O)N[C@@H](CCC(N)=O)C(=O)N[C@H](C(=O)N[C@@H](CC(C)C)C(=O)N[C@@H](CC(C)C)C(=O)N[C@@H](CCCCN)C(=O)N[C@@H](CCC(N)=O)C(=O)N[C@@H](CCC(=O)O)C(=O)N[C@@H](CCCNC(=N)N)C(=O)N[C@@H](CCC(N)=O)C(=O)N[C@@H](CCCCN)C(=O)N[C@@H](CCCCN)C(=O)N[C@@H](CCC(N)=O)C(=O)N[C@@H](CCCNC(=N)N)C(=O)N[C@@H](CCC(N)=O)C(=O)N[C@@H](CCC(N)=O)C(=O)N[C@@H](C)C(=O)N[C@@H](CCC(=O)O)C(=O)N[C@@H](CCCCN)C(=O)N[C@@H](CC(N)=O)C(=O)N[C@@H](CCCCN)C(=O)N[C@@H](CCC(N)=O)C(=O)N[C@H](C(=O)N[C@@H](CC(C)C)C(=O)N[C@@H](C)C(=O)N[C@@H](CCC(N)=O)C(=O)N[C@H](C(N)=O)C(C)C)[C@@H](C)CC)[C@@H](C)CC)[C@@H](C)CC)C(C)C)C(C)C) [SEQ ID NO: 177]
0.04	3.77	IVLSLD[dV]PIKLK([AEEA-AEEA-γGlu-C20 diacid])QILLKQERQKKQRQQAEKNKQILAQV-NH2 (N-terminus assumed; SMILES CC[C@H](C)[C@H](N)C(=O)N[C@H](C(=O)N[C@@H](CC(C)C)C(=O)N[C@@H](CO)C(=O)N[C@@H](CC(C)C)C(=O)N[C@@H](CC(=O)O)C(=O)N[C@@H](C(=O)N1CCC[C@H]1C(=O)N[C@H](C(=O)N[C@@H](CCCCN)C(=O)N[C@@H](CC(C)C)C(=O)N[C@@H](CCCCNC(=O)COCCOCCNC(=O)COCCOCCNC(=O)CC[C@H](NC(=O)CCCCCCCCCCCCCCCCCCC(=O)O)C(=O)O)C(=O)N[C@@H](CCC(N)=O)C(=O)N[C@H](C(=O)N[C@@H](CC(C)C)C(=O)N[C@@H](CC(C)C)C(=O)N[C@@H](CCCCN)C(=O)N[C@@H](CCC(N)=O)C(=O)N[C@@H](CCC(=O)O)C(=O)N[C@@H](CCCNC(=N)N)C(=O)N[C@@H](CCC(N)=O)C(=O)N[C@@H](CCCCN)C(=O)N[C@@H](CCCCN)C(=O)N[C@@H](CCC(N)=O)C(=O)N[C@@H](CCCNC(=N)N)C(=O)N[C@@H](CCC(N)=O)C(=O)N[C@@H](CCC(N)=O)C(=O)N[C@@H](C)C(=O)N[C@@H](CCC(=O)O)C(=O)N[C@@H](CCCCN)C(=O)N[C@@H](CC(N)=O)C(=O)N[C@@H](CCCCN)C(=O)N[C@@H](CCC(N)=O)C(=O)N[C@H](C(=O)N[C@@H](CC(C)C)C(=O)N[C@@H](C)C(=O)N[C@@H](CCC(N)=O)C(=O)N[C@H](C(N)=O)C(C)C)[C@@H](C)CC)[C@@H](C)CC)[C@@H](C)CC)C(C)C)C(C)C) [SEQ ID NO: 178]
